This is an account of results in the DeepSol protein solubility set.

The series can be described thus: soluble on expression in E. coli; label from the status in PepcDB or PDB records.
As to “MVGLADVAVLYSGGKDSNYALYWAIKNRFSVKFLVTMVSENEESYMYHTINANLTDLQARALGIPLVKGFTQGEKEKEVEDLKRVLSGLKIQGIVAGALASKYQRKRIEKVAKELGLEVYTPAWGRDAKEYMRELLNLGFKIMVVGVSAYGLDESWLGRILDESALEELITLNEKYKVHVAGEGGEFETFVLDMPLFKYKIVVDKAKKVWEPCTSSGKLIIEEAHLESKLEHHHHHH”, the “soluble on expression in E. coli” value is given as “soluble”.
In the case of “AHHHHHHGSGRDKKNTALLDIARDIGGDEAVEVVKALEKKGEATDEELAELTGVRVNTVRKILYALYDAKLATFRRVRDDETGWYYYYWRIDTKRLPEVIRTRKLQELEKLKQMLQEETSETYYHCGTPGHPKLTFDEAFEYGFQCPICGEILYEYDNSKIIEELKKRIEELEIELGLRSPPKEEKPKKATRRKKSRSGKKKK”, the “soluble on expression in E. coli” value is “not soluble”.
“TSTDWKEAKSFLKGLSDKQREEHYFCKDFVRLKKIPTWKEMAKGVAVKVEEPRYKKDKQLNEKISLLRSDITKLEVDAIVNAANSSLLGGGGVDGCIHRAAGPLLTDECRTLQSCKTGKAKITGGYRLPAKYVIHTVGPIAYGEPSASQAAELRSCYLSSLDLLLEHRLRSVAFPCISTGVFGYPCEAAAEIVLATLREWLEQHKDKVDRLIICVFLEKDEDIYRSRLPHYFPVA”: the “soluble on expression in E. coli” value is “soluble”.
With “MKTICVFAGSNPGGNEAYKRKAAELGVYMAEQGIGLVYGGSRVGLMGTIADAIMENGGTAIGVMPSGLFSGEVVHQNLTELIEVNGMHERKAKMSELADGFISMPGGFGTYEELFEVLCWAQIGIHQKPIGLYNVNGYFEPMMKMVKYSIQEGFSNESHLKLIHSSSRPDELIEQMQNYSYPILEKKWTEI”, the “soluble on expression in E. coli” value was “soluble”.
In the case of “MRLLIVLSALLIPCLAQLSEDSSELEFGGQQAQRPSPDGPLFPRFLMHVPRFARKEFFDIVSNDQLSQDQQNEQLTIWAKAFNVTDEFNAWTKKIQEQKEAVSKNVEAVASNITTVYTQLEEILSNSNLTRRDQHDQIRKLATTFPREVRALFFIARNYRPEGRSPIFGQGIGMGKKPQSSMVPFIFQQQQPPMMMFGQQPFMPAGPMMMNRFQQTGSQQNFQSRRGGRGDGPGFVPGTQDNNQRGSGERGQRQNFGPSDNLTNGNQFSKKQFARGPSSMNSDLSENSQHSDSNSQFDFPRGPGGRGGRGQGPDFGPGGQGGRGQGPDFGPQDDFPGRRGSGGPGGRGGRGQGPDFEPQDDFPGRRGSGGPGRRGGRGQGPDFGPQDDFPGRRGSGGPGGRGGRGQGPDFGPGRQGGRGQGPDFGPQDDFSGRRGSGGPGGRGGRGQEPDFGPGGQGGRGQGPDFGPQDDFPGRRGSGGPEGRDGRGQGPDFGPGSQGGRGQDSDSGSQDAFPGRRGSGGPGGRGQGPDFGPQDDFPGRRGSGGPEGRDGRGQGPDFGPGSQGGRGQDSDSGSQDAFPGRRGPGGPGGLGGRGQGPDFGPGGQGDRGQGPDFGARSQGNRGQGPAFESRQPRQFDDADTSSAPSQKYFQRQMNSGMRFDQSSGFGMRKSQSTQQNYENFAEN” it was “not soluble”; in that of “GFVNVTGMFRDRARTNRADGNQLILFDQSDFPNGVAPPSGFPFAYPQVAGIIGEEAAQNARRIDNQILNQRGLERSDFQFRVGQSAVQQRAVFLNSEVGLGNDATLYAFGGLSYKNGIGAPFRRLPFSTSAMPYRASNTDPALFPNGFQPEMNSDVVDQSLTIGVEGTIGGWTWDLSNSYGRNSLDYQMDNTVNASLLQASPTSIYAGGHAFSQNVTNLDVSRFFDDALAGINVAFGGAYRTDRYQIFSGEEASYRNYGRVQLIDDTSAASPRLVTRDTLGKEPGTQGFVGFRPENEVDRTRSNVAAYLDTEVNLTENLLVTAAGRYENYSDFGGTLNGRLAARWGLLDGRLNLRGSASTGFRAPSLHQIYFNEVRT”, “not soluble”.
Take “MSPRCANLALKHYLLKPVQRIPQYRLLLTDYLKNLIEDAGDYRDTQDALAVVVEVANHANDTMKQGDNFQKLMQIQYSLNGHHEIVQPGRVFLKEGILMKLSRKVMQPRMFFLFNDALLYTTPVQSGMYKLNNMLSLAGMKVRKPTQEAYQNELKIESVERSFILSASSATERDEWLEAISRAIEEYAKKRITFCPSRSLDEADSENKEEVSPLGSKAPIWIPDTRATMCMICTSEFTLTWRRHHCRACGKIVCQACSSNKYGLDYLKNQPARVCEHCFQELQKLDHQHSPRIGSPGNHKSPSSALSSVLHSIPSGRKQKKIPAALKEVSANTEDSSMSGYLYRSKGNKKPWKHFWFVIKNKVLYTYAASEVRSEI”: the “soluble on expression in E. coli” value was “soluble”.
